Assay results as given in patent US20210008175A1, “BACTERIOPHAGE LYSIN AND ANTIBIOTIC COMBINATIONS AGAINST GRAM POSITIVE BACTERIA” (priority 2012, published 2021).

What was measured:
[1] = test system: Staphylococcus lugdiensis; test: MIC, broth microdilution (CLSI M07-A9); assay type: cell-based; conditions: 10 tested
[2] = test system: MRSA strain MW2 and MSSA strain ATCC 29213; test: MIC in the presence of surfactant (Survanta), broth microdilution; assay type: cell-based, Staphylococcus aureus; conditions: range from 1.25 to 15% surfactant
[3] = test system: S. aureus; test: Murine bacteremia model, survival; assay type: in vivo, BALB/c mice; conditions: for 24 hour survival rate / 72 hour survival rate: high challenge (10^9 CFU MRSA MW2), dosing at 2 hours
[4] = test system: MRSA Staphylococcus aureus strain (MW2); test: microbe, parasite or virus in culture; assay type: cell-based
[5] = daptomycin 50 mg/kg once daily, PlySs2 5.25 mg/kg (FIG. 27B)
[6] = vancomycin 110 mg/kg twice daily, PlySs2 5.25 mg/kg (FIG. 27E)

B1: PlySs2: bacteriophage lysin derived from Streptococcus suis, amino acid sequence of FIG. 29 (SEQ ID NO: 1), N-terminal CHAP and C-terminal SH3 domain (protein, listed as Streptococcus suis)
chain: MTTVNEALNNVRAQVGSGVSVGNGECYALASWYERMISPDATVGLGAGVGWVSGAIGDTISAKNIGSSYNWQANGWTVSTSGPFKAGQIVTLGATPGNPYGHVVIVEAVDGDRLTILEQNYGGKRYPVRNYYSAASYRQQVVHYITPPGTVAQSAPNLAGSRSYRETGTMTVTVDALNVRRAPNTSGEIVAVYKRGESFDYDTVIIDVNGYVWVSYIGGSGKRNYVATGATKDGKRFGNAWGTFK
B1 was tested, and the “MIC 50%” value [1] was 8 µg/mL, the “MIC 90%” value [1] was 8 µg/mL and the “MIC Range” value [1] was 8 µg/mL. For the same molecule, the “inhibition of MIC by surfactant” value [2] was 8 fold, the protection ([3]; 5 mg/kg dose) was “significant protection” and the “dose giving survival enhancement over mock-injected control” value ([3]; dose-response, as little as) was 0.25 mg/kg. The “24 hour survival rate” value [3, 5] was 56%, the “72 hour survival rate” value [3, 5] was 18% and the “24 hour survival rate” value [3, 6] was 60%. For the same molecule, the “72 hour survival rate” value [3, 6] was 3%, the “survival at 72 hours” value ([3]; low challenge model (up to 7×10^6 CFU MRSA MW2), single dose at 4 hours, PlySs2 1.25 mg/kg, daptomycin 2 mg/kg) was 13% and the “suppression of daptomycin resistance relative to daptomycin alone” value ([4]; sub-MIC PlySs2 (4 ug/ml)) was 8 to 16 fold. For the same molecule, the “suppression of vancomycin resistance relative to vancomycin alone” value ([4]; sub-MIC PlySs2 (8 ug/ml)) was 4 to 8 fold.
